From the supplement of paper PMC9170038

Legend:
MS2 coat protein [1] = assay: apparent KD of MS2 coat protein; designed switch direction (-1 OFF switch, 1 ON switch): 1; higher = weaker reporter binding; conditions: Eterna round: R98
Experimental: (§1)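 RNA-MaP: designed FMN/MS2 RNA switches (84 nt design region) are transcribed on-chip within common flanks and titrated with SNAP-549-labelled MS2 coat protein (about 1-3000 nM) in 100 mM Tris pH 7.5, 80 mM KCl, 4 mM MgCl2, without or with 200 uM FMN. Median apparent KD per design; activation ratio = KD,OFF / KD,ON.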

MS2 coat protein [2] = assay: apparent KD of MS2 coat protein; designed switch direction (-1 OFF switch, 1 ON switch): -1; higher = weaker reporter binding; conditions: Eterna round: R98
Experimental: as §1

MS2 coat protein [3] = assay: apparent KD of MS2 coat protein; higher = weaker reporter binding; conditions: Eterna round: R101
Experimental: as §1

Row | Sequence | apparent KD of MS2 coat protein (MS2 coat protein [1]; input ligand: FMN 200 uM) [nM] | apparent KD of MS2 coat protein (MS2 coat protein [1]; input ligand: none) [nM] | further results
1 | AAAUAAAAUAUAGGAUAUGGAAACAUGAGGAUCACCCAUGUAAGAUAAGAUAAAUAAUGAUAUAGCCAGAAGGAUAAAAUAUAA [LRO005_SS NG 2] | 32.7 | 28.3 | –
2 | AAUAAUCAGGUAGGAUAUGCUCAGGAAUACUGAGCAGAAGGACUAGAAACCUGAGGAUCACCCAGGUAACUGGAAUAAUAAUAA [Same State NG1 - A3C, U17G Submission 6A] | 53.6 | 78.3 | –
3 | AGUUGCAAACAGAACAUGAGGAUCACCCAUGUGCUCUCGUGUAAGGAUAUACAUUCGUAUGGAAAGUAGAAGGUACUAAUUAUG [JR_SSNG3_Sub93] | 66.3 | 65.1 | –
4 | AUAUAAAAUAUAGGAUAUGGAAACAUGAGGAUCACCCAUGUAUGAUAAGAUAAAUAAUGAUAUAGCCAGAAGGAUACAAUAUAA [LRO008_SS NG 2] | 47.5 | 38.2 | –
5 | AUCUAUCGGUCAGGAUAUUCACAUGAGGAUCACCCAUGUGAGCCUCGGCCAAAGUGAACGCAUGUGAAGAAGGGACGGCAAAAC [Atceen] | – | – | apparent KD of MS2 coat protein (MS2 coat protein [2]; input ligand: FMN 200 uM): 33.4 nM; apparent KD of MS2 coat protein (MS2 coat protein [2]; input ligand: none): 27.8 nM
6 | AUGAAGAGGCAAGGAUAUCGAGUGCUGGGCCUAUACAUGAGGAUCACCCAUGUCCUGGCAGGACGUGAGAAGGUGUAUCGAAUA [Ussotemaa] | 455 | 244 | –
7 | CAUAUAUGGUGAGGAUAUGCAGAGGAUCACCCUGUAGAAGGCAUCAGGGUAGAAGGUGCAAGGAUCACCUGUAAGGAUAUAUCC [pwkr2 ssNG1 DX.28] | 979 | 864 | –
8 | CAUGUAUGGUGAGGAUAUGCAAAGGAUCACCUUGUAGAAGGCAUCAGGUAGAAGGUGCAGAGGAUCACCCUGUAAGGAUAUAUC [pwkr2 ssNG1 DX.23] | 72 | 249 | –
9 | CCAGAUAUAUGAGGAUAUCGAGUGGAAUACACUCGAGAAGGUAUGUGAAAACAUGAGGAUCACCCAUGUGAUUAAUAAUCUGGA [SameState NG1 #1] | 22.4 | 16.8 | –
10 | CCGUUGCAAAUAAAACAUGAGGAUCACCCAUGUGAGUCUCAUGAGGAUAUGCAGGUCAAAGACUUGCAGAAGGCAUGGCGACGG [Mat - Same State NG 3 - JL Mod - D67] | 118 | 1520 | –
11 | CGAACCACUUAGGUACCACACAUGAGGAUCACCCAUGUAUCACAGGAUAUGCAUGAUAUAUUCAGGCAGAAGGGUGAUCUUACC [Esananti] | 265 | 24.7 | –
12 | CUGUGGGCCAUAGGAUAUGCGCAGAAUUAGCAAGCAGAAGGGUGGAUCGGACAAUAAUAACUACAUGAGGAUCACCCAUGUGCU [Lelegeza] | 55.5 | 139 | –
13 | GAAUAAUAGAUCCAAUUUAUCUACAUGAGGAUCACCCAUGUGCAGGAUAUGCUAAAAUUUAAUAAGCAGAAGGGCAAGAACGGC [JR_ExcNG3_Sub016] | – | – | apparent KD of MS2 coat protein (MS2 coat protein [2]; input ligand: FMN 200 uM): 374 nM; apparent KD of MS2 coat protein (MS2 coat protein [2]; input ligand: none): 104 nM
14 | GACGAAUUCUUAGGAUAUCGAGUGGAUAACACUCGAGAAGGAAGAUAUACCUGAGGAUCACCCAGGUUAAACUGGACGUCAAUA [Same State NG1 - A3C, U17G Submission 8C] | 53.6 | 205 | –
15 | GACGGAUUCUUAGGAUAUGCUCAGGAUAACUGAGCAGAAGGAAGAAUAACCUGAGGAUCACCCAGGUAAUACUGAACGUCAAUA [Same State NG1 - A3C, U17G Submission 9B] | 20.7 | 64.1 | –
16 | GAGCAGGUAAAUAAACUCAAUUACAUGAGGAUCACCCAUGUAUAGGAUAUCGUCAGGAAUACUGACGAGAAGGAUACAUCCUGC [Exclusion NG 3/14-A2] | – | – | apparent KD of MS2 coat protein (MS2 coat protein [2]; input ligand: FMN 200 uM): 59.2 nM; apparent KD of MS2 coat protein (MS2 coat protein [2]; input ligand: none): 19.7 nM
17 | GCAGAAGGUGCGGAGGAUCACCCUGUAAGGAUAUGCAUUAGCAAGGAUAUACAGAGGAUCACCCUGUAGAAGGUGCACUUCAAA [pwkr2 ssNG3 DX.6] | 779 | 3160 | –
18 | GCGCGCGCGCGCGCGCGCGCGCACAUGAGGAUCACCCAUGUAUAGGAUAUCGAUUGUUGUUGAUUCGAGAAGGGUAGCGCGCGC [Exclusion NG3] | – | – | apparent KD of MS2 coat protein (MS2 coat protein [2]; input ligand: FMN 200 uM): 44.1 nM; apparent KD of MS2 coat protein (MS2 coat protein [2]; input ligand: none): 39.4 nM
19 | GGAGACCUCACAGGAUAUGCUGGACUUUGUCCAGCAGAAGGGUGAACAUGAGGAUCACCCAUGUAGGUCUCCAAAAUAUUUAAU [Denovo 50] | 989 | 100 | –
20 | UAACAGCGAAGAUAAUAAUGAAUACAUGAGGAUCACCCAUGUAAGGAUAUCGUCAGGAAUACUGACGAGAAGGUACAUACGCUG [Exclusion NG 3/17-B2] | – | – | apparent KD of MS2 coat protein (MS2 coat protein [2]; input ligand: FMN 200 uM): 23.2 nM; apparent KD of MS2 coat protein (MS2 coat protein [2]; input ligand: none): 16.7 nM
21 | UAUAACGAAAGAGGAUAUAUCGGCCGUCUACGGAUAGAAGGCUUUCGCUAUGGCACUGAUGAUCUACAUGAGGAUCACCCAUGU [EternaBot731] (puzzle (switch architecture): Exclusion NG 1) | – | – | apparent KD of MS2 coat protein (MS2 coat protein [3]; input ligand: FMN 200 uM): 7.18 nM
22 | UAUUCUUUGUUAGGAUAUGGGCCCACCCACCCACAAAGUGGGUGGGUGGGCCCAGAAGGAACAUGAGGAUCACCCAUGUAGGAA [#Aaaddddeeeeeeennnniiiinneeeee!] (puzzle (switch architecture): Small Loop Exclusion NG 1) | – | – | apparent KD of MS2 coat protein (MS2 coat protein [3]; input ligand: FMN 200 uM): 53.1 nM; apparent KD of MS2 coat protein (MS2 coat protein [3]; input ligand: none): 11.7 nM
23 | UAUUCUUUGUUAGGAUAUGGGCCCACCCACCCACAAAGUGGGUGGGUGGGCCCAGAAGGAACAUGAGGAUCACCCAUGUAGGCC [#Aaaddddeeeeeeennnniiiinneeeee!] (puzzle (switch architecture): Small Loop Exclusion NG 1) | – | – | apparent KD of MS2 coat protein (MS2 coat protein [3]; input ligand: FMN 200 uM): 88.5 nM; apparent KD of MS2 coat protein (MS2 coat protein [3]; input ligand: none): 6.16 nM
24 | UCACUCACGUUAGGAUAUGGAUCGGAAAACGAUCCAGAAGGAACCUGCAAACAAGAGGAUCACCCUUGUUCCAAUAACGAGUGA [SameSame 6 - Jieux - Same State NG 1] | 40.9 | 51.2 | –
25 | UUAUUAUAUGUAGGAUAUGCAUAUUAUUACUGUGCAGAAGGACAUGAGGAUCACCCAUGUAUAUUAUUAUUAUAUAUUAUAUAU (puzzle (switch architecture): Exclusion NG 1) | – | – | apparent KD of MS2 coat protein (MS2 coat protein [3]; input ligand: FMN 200 uM): 20.6 nM; apparent KD of MS2 coat protein (MS2 coat protein [3]; input ligand: none): 17.2 nM
